# Laboratory results published in patent US20200148778A1 (JIANGSU HENGRUI MEDICINE, published 2020).
# Residue numbers refer to the chain shown, from its start.
# B1: mouse hybridoma anti-human CD40 antibody 38B4 (antibody, V domains shown)
# VH: QVRLKQSGAELVRPGASVKVSCKASGYTFTDYYINWVKQRPGQGLEWIAGIYPGTGNTYYNEKFKGKATLTAERSSSTAYMQLTSLTSEDSAVYFCTRRGLPSLCFDYWGQGTTLTVSS
# VL: DFQMTQTTSSLSASLGDRVTISCSASQGISNYLNWYQQKPDGTVKLLIYYTSSLHSGVPSRFSGSGSGTDYSLTISNLEPEDIATYYCQQYSKLPPTFGGGTKLEIK
# notes: Murine hybridoma antibody
# B2: mouse hybridoma anti-human CD40 antibody 1D9 (antibody, V domains shown)
# VH: QVRLQQSGAELVRPGTSMRVSCKASGYAFTNYLINWVKQRPGQGLEWIGILNPGSGGTNYNENFKDKATLTADKSSNTAYMQLSSLTSEDSAVYFCIRGSPGFAYWGQGTLVTVSA
# VL: DIQMTQTTSSLSASLGDRVTISCRASQDINIYLNWYQQKPDGTVKLLIYSTSGLHSGVPSRFNGSGSGTDYSLTISNLEQEDIATYFCQQGYTLPYTFGGGTKLEIK
# notes: Murine hybridoma antibody
# B3: mouse hybridoma anti-human CD40 antibody 2H6 (antibody, V domains shown)
# VH: QVQLQQSGAELVRPGTSVKVSCKASGYAFSDYLIEWAKQRPGQGLEWIGVINPGSGGSNYNEKIKDRATLTADKSSSTAYMQLSSLTSEDSAVYFCARGGGGFTYWGQGTLVTVSA
# VL: EIQLTQTTSSLSASLGDRVTISCRASQDISNYLNWYQQKPDGTIKLLLNFASRLHSGVPSRFSGSGSGTDFFLTISNLEQDDIATYFCQQGSTLPWTFGGGTKLEIK
# notes: Murine hybridoma antibody; also called mouse mAb 2H6
# B4: mouse hybridoma anti-human CD40 antibody 14C10 (antibody, V domains shown)
# VH: B3 VH with L4V, S30T, D31N, A37V, G54E, S55F, S58T, I64F, D66G, R67K
# VL: HIQMTQTTSSLSASLGDRVTISCRASQDISSHLNWYQQKPDGTVKLLISYTSRLHSGVPSRFSGSGSGADYSLTISNLEQEDIATYFCQQGNTLPWTFGGGTKLEIK
# notes: Murine hybridoma antibody
# B5: mouse hybridoma anti-human CD40 antibody 9E5 (antibody, V domains shown)
# VH: QVQLQQPGADLVKPGASVKMSCKASGYILTTYWITWVKQRPGQGLEWIGDIHPGSGSTKYNEKFKSKATLTVDTSSSTAYMQLTRLSSEDSAVYYCARRDYWGQGTTLTVSS
# VL: DVLMTQSPLSLPVSLGDQASISCRSSQNIVNSQGNTYLEWYLQKPGESPKLLIYKVTNRFSGVPDRFSGSGSGTDFTLKISRVEAEDLGVYYCFQASLVPWTFGGGTKLEIK
# notes: Murine hybridoma antibody; also called mouse 9E5
# B6: humanized anti-CD40 antibody hu9E5 (H1c heavy chain and L1a light chain) (antibody, human IgG1, kappa, V domains shown)
# VH: QVQLVQSGAEVKKPGASVKVSCKASGYILTTYWITWVRQAPGQGLEWMGDIHPGSGSTKYNEKFKSRVTLTVDTSISTAYMELSRLRSEDTAVYYCARRDYWGQGTTVTVSS
# VL: DIVMTQSPLSLPVTPGEPASISCRSSQNIVNSQGNTYLEWYLQKPGQSPQLLIYKVTNRFSGVPDRFSGSGSGTDFTLKISRVEAEDVGVYYCFQASLVPWTFGGGTKVEIKR
# notes: the suffix -25 is not explained; Human IgG1/kappa; also called Hu9E5-25
# B7: human-mouse chimeric antibody 2H6-C (antibody, V domains shown)
# VH: B3 VH
# VL: B3 VL
# notes: Variable regions of murine 2H6 ligated to the constant region of human antibody IgG1; made in HEK293 cells
# B8: humanized anti-CD40 antibody hu2H6 (H1b heavy chain and L1c light chain) (antibody, human IgG1, kappa, V domains shown)
# VH: QVQLVQSGAEVKKPGSSVKVSCKASGYAFSDYLIEWVRQAPGQGLEWMGVINPGSGGSNYNEKIKDRVTLTADKSTSTAYMELSSLRSEDTAVYYCARGGGGFTYWGQGTLVTVSS
# VL: DIQLTQSPSSLSASVGDRVTITCRASQDISNYLNWYQQKPGKTIKLLLNFASRLHSGVPSRFSGSGSGTDFTFTISSLQPEDIATYYCQQGSTLPWTFGGGTKVEIKR
# notes: the suffix -11 is not explained; Human IgG1/kappa; also called Hu2H6-11
# B9: human-mouse chimeric antibody 9E5-C (antibody, V domains shown)
# VH: B5 VH
# VL: B5 VL
# notes: Variable regions of murine 9E5 ligated to the constant region of human antibody IgG1; made in HEK293 cells
# Molecular target: T1, His-tagged mouse CD40 (m-CD40-his) recombinant protein (mouse, UniProt P27512 24-193)
# T1 construct: range 24-193; Bought from Acrobiosystems; also called Mouse CD40-his; not shown: His tag
# T1 sequence (P27512 24-193 limits assumed): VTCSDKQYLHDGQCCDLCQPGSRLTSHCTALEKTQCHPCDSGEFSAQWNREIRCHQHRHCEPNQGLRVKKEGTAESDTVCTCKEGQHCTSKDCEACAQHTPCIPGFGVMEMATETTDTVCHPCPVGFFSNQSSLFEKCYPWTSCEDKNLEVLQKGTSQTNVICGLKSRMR
# Test: ELISA, CD40-his coated
row,Binder,binding result
1,B1,no binding
2,B2,no binding
3,B3,no binding
4,B4,no binding
5,B5,no binding

# Molecular target: human CD40 on HEK293 cells stably transfected with the human CD40 gene (HEK-Blue CD40L cells) (human, UniProt P25942 21-277)
# Sequence (P25942 21-277): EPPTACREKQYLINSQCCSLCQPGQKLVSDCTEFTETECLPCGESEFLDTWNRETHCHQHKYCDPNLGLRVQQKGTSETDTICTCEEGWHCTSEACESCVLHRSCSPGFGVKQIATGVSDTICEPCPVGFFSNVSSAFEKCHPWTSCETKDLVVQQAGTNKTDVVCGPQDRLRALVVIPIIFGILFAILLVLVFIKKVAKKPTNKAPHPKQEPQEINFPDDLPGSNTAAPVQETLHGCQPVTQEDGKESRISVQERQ
# Test: cell-based or functional assay
row,Binder,HEK293-CD40L cells activity assay EC50
1,B1,36.5 ng/mL
2,B2,14.5 ng/mL
3,B3,15.1 ng/mL
4,B4,10.9 ng/mL
5,B5,17.1 ng/mL

# Molecular target: T2, His-tagged human CD40 (h-CD40-his) recombinant protein (human, UniProt P25942 21-193)
# T2 construct: range 21-193; Bought from Acrobiosystems; also called Human CD40-his; not shown: His tag
# T2 sequence (P25942 21-193 limits assumed): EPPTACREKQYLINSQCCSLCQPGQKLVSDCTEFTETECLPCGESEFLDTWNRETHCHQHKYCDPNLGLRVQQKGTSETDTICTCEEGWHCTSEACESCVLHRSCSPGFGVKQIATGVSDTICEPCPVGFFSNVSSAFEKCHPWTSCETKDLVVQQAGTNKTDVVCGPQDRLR
# Test: Biacore, affinity to human CD40
# From the text: (§1) Human antibody captured antibody was covalently coupled to CM5 biosensor chip of Biacore instrument (Biacore X100, GE) according to the method described in the description of Human Antibody Capture Kit (Cat. BR-1008-39, GE), thereby capturing a certain amount of chimeric or humanized antibodies to be tested based on affinity. Then a series of concentration gradient CD40 antigens (purchased from Acrobiosystems) flowed through the surface of chip, and Biacore X100 (GE) was used to detect the reaction signals in real time to obtain the binding and dissociation curves. After the completion of each cycle of dissociation, the biochip was rinsed and regenerated with the regeneration solution provided by the Human Antibody Capture Kit. Amine Coupling Kits (Cat. BR-1000-50, GE) were purchased from GE, and the buffer solution HBS-EP+buffer 1× (pH 7.4), which was obtained from HBS-EP+buffer 10× (Cat. BR-1006-69, GE) by dilution with D. I. Water.
Binder,fold of affinity against the Alligator reference,fold of affinity against the Pfizer reference
B6,9 times,3 times

# Molecular target: T2, His-tagged human CD40 (h-CD40-his) …
# Test: ELISA, human CD40-his coated
# Experimental: (§2) Binding properties of anti-CD40 antibodies was detected by ELISA assay. The CD40 recombinant protein with his-tag was directly used for coating, after the antibody was added, the binding activity of the antibody to the antigen—was detected by adding a secondary antibody (HRP-conjugated anti-antibody Fc antibody) and HRP substrate TMB.
# (§3) A 96-well microtiter plate was coated with 100 μl/well of human or rhesus CD40-his protein at a concentration of 0.5 μg/ml and incubated overnight at 4° C. The plate was rinsed three times with rinsing buffer, 250 μl per well. For each rinsing, the plate was shaken for 10 seconds to ensure sufficient cleaning. 200 μl blocking solution was added in each well and incubated for 2 hours at room temperature. Then the plate was washed three times with 250 μl per well. The plate was shaken for 10 seconds in each rinsing to ensure sufficient cleaning. 100 μl of anti-CD40 antibody to be tested diluted in dilution was added to each well, and incubated for 1 hour at room temperature, then rinsing the plate for three times with 250 μl of rinsing buffer per well. 100 μl of HRP-labeled goat anti-human IgG secondary antibody diluted 1:20000 with diluent was added to each well, and incubated for 1 hour at room temperature. Then the plate was washed three times with 250 μl per well. 100 μl of TMB was added to each well and allowed to react for 15 minutes in the dark. 50 μl of 0.16 M sulfuric acid per well was added. The OD value was measured at 450 nm by Thermo MpμltiSkanFc plate reader and the binding EC50 value of the CD40 antibody to […] was calculated.
row,Binder,EC50
1,B1,12.9 ng/mL
2,B2,10 ng/mL
3,B6,1.65 ng/mL
4,B3,7.06 ng/mL
5,B7,4.56 ng/mL
6,B4,8.81 ng/mL
7,B8,3.68 ng/mL
8,B5,6 ng/mL
9,B9,1.35 ng/mL

# Molecular target: T3, His-tagged rhesus CD40 (rhesus-CD40-his) recombinant protein (rhesus, UniProt F6SNI1 21-193)
# T3 construct: range 21-193; Bought from Acrobiosystems (# CD0-052H7); not shown: His tag
# Test: ELISA, rhesus CD40-his coated
# Experimental: as §2, §3
row,Binder,EC50
1,B1,11.8 ng/mL
2,B2,9.81 ng/mL
3,B6,1.66 ng/mL
4,B3,7.21 ng/mL
5,B4,9.49 ng/mL
6,B8,2.95 ng/mL
7,B5,6.7 ng/mL

# Molecular target: T2, His-tagged human CD40 (h-CD40-his) …
# Test: Biacore X100, antibody captured by anti-human antibody on CM5 chip, CD40 antigen as analyte, 1:1 model
# From the text: as §1
row,Binder,Kd
1,B6,5.3 nM
2,B7,3.98 nM
3,B8,11.2 nM
4,B9,2.68 nM
